Assay results reported in article PMC7659714 (The Journal of Cell Biology, 2020).

B1: CPT1CΔCterm-FLAG (truncated CPT1C, last 39 aa replaced by FLAG) expressed in HEK cells for co-immunoprecipitation (domain or fragment, UniProt Q8BGD5 1-759, looked up)
chain: MAEAHQASSLLSSLSSDGAEVELSSPVWQEIYLCALRSWKRHLWRVWNDFLAGVVPATPLSWLFLFSTIQLACLLQLDPSLGLMEKIKELLPDWGGQHHQLQGFLSAAVFASCLWGALIFTLHVALRLLLSHHGWLLEPHGAMSSPTKTWLALVRIFSGRHPRLFSFQRALPRQPVPSAQETVRKYLESVRPVLGDDAFDRATALANDFLRLHAPRLQLYLQLKSWCTSNYVSDWWEEFVYLRSRGSLINSTYYMMDFLYVTPTPLQAARAGNAVHTLLLYRHLLNRQEISPTLLMGMRPLCSAQYERMFNTTRIPGVEKDHLRHLQDSRHVAVFHRGRFFRVGTHSPNGLLSPRALEQQFQDILDDPSPACPLEEHLAALTAAPRSMWAQVRESVKTHAATALEAVEGAAFFVSLDSEPAGLTREDPAASLDAYAHALLAGRGHDRWFDKSFTLIVFSNGKLGLSVEHSWADCPVSGHLWEFTLATECFQLGYATDGHCKGHPDPTLPQPQRLQWDLPEQIQPSISLALRGAKTLSGNIDCHVFPFSHFGKSFIKCCHVSSDSFIQLVLQLAHFRDRGQFCLTYESAMTRLFLEGRTETVRSCTREACQFVRAMDNKETDQHCLALFRVAVDKHQALLKAAMSGQGIDRHLFALYIMSRLLHMQSPFLTQVQSQQWLLSTSQVPVQQTHLIDVHNYPDYVSSGGGFGPAHDHGYGISYIFMGENAITFHISSKKSSTETDSHRLGQHIENALLDVASL
B2: CPT1CM589S (malonyl-CoA-insensitive CPT1C) expressed in HEK cells for co-immunoprecipitation (natural protein, UniProt Q8BGD5 1-798, looked up)
chain: MAEAHQASSLLSSLSSDGAEVELSSPVWQEIYLCALRSWKRHLWRVWNDFLAGVVPATPLSWLFLFSTIQLACLLQLDPSLGLMEKIKELLPDWGGQHHQLQGFLSAAVFASCLWGALIFTLHVALRLLLSHHGWLLEPHGAMSSPTKTWLALVRIFSGRHPRLFSFQRALPRQPVPSAQETVRKYLESVRPVLGDDAFDRATALANDFLRLHAPRLQLYLQLKSWCTSNYVSDWWEEFVYLRSRGSLINSTYYMMDFLYVTPTPLQAARAGNAVHTLLLYRHLLNRQEISPTLLMGMRPLCSAQYERMFNTTRIPGVEKDHLRHLQDSRHVAVFHRGRFFRVGTHSPNGLLSPRALEQQFQDILDDPSPACPLEEHLAALTAAPRSMWAQVRESVKTHAATALEAVEGAAFFVSLDSEPAGLTREDPAASLDAYAHALLAGRGHDRWFDKSFTLIVFSNGKLGLSVEHSWADCPVSGHLWEFTLATECFQLGYATDGHCKGHPDPTLPQPQRLQWDLPEQIQPSISLALRGAKTLSGNIDCHVFPFSHFGKSFIKCCHVSSDSFIQLVLQLAHFRDRGQFCLTYESASTRLFLEGRTETVRSCTREACQFVRAMDNKETDQHCLALFRVAVDKHQALLKAAMSGQGIDRHLFALYIMSRLLHMQSPFLTQVQSQQWLLSTSQVPVQQTHLIDVHNYPDYVSSGGGFGPAHDHGYGISYIFMGENAITFHISSKKSSTETDSHRLGQHIENALLDVASLFRVGQHFKRQFRGENSDYRYNFLSCKTVDPNTPTSSTNL
B3: YFP-CPT1CM589S for FRET (natural protein, UniProt Q8BGD5 1-798, looked up)
chain: B2 chain
B4: YFP-CPT1C, wild type, for FRET (CPT1C-SYFP2) (natural protein, human, UniProt Q8TCG5 1-803, looked up)
chain: MAEAHQAVGFRPSLTSDGAEVELSAPVLQEIYLSGLRSWKRHLSRFWNDFLTGVFPASPLSWLFLFSAIQLAWFLQLDPSLGLMEKIKELLPDWGGQHHGLRGVLAAALFASCLWGALIFTLHVALRLLLSYHGWLLEPHGAMSSPTKTWLALVRIFSGRHPMLFSYQRSLPRQPVPSVQDTVRKYLESVRPILSDEDFDWTAVLAQEFLRLQASLLQWYLRLKSWWASNYVSDWWEEFVYLRSRNPLMVNSNYYMMDFLYVTPTPLQAARAGNAVHALLLYRHRLNRQEIPPTLLMGMRPLCSAQYEKIFNTTRIPGVQKDYIRHLHDSQHVAVFHRGRFFRMGTHSRNSLLSPRALEQQFQRILDDPSPACPHEEHLAALTAAPRGTWAQVRTSLKTQAAEALEAVEGAAFFVSLDAEPAGLTREDPAASLDAYAHALLAGRGHDRWFDKSFTLIVFSNGKLGLSVEHSWADCPISGHMWEFTLATECFQLGYSTDGHCKGHPDPTLPQPQRLQWDLPDQIHSSISLALRGAKILSENVDCHVVPFSLFGKSFIRRCHLSSDSFIQIALQLAHFRDRGQFCLTYESAMTRLFLEGRTETVRSCTREACNFVRAMEDKEKTDPQCLALFRVAVDKHQALLKAAMSGQGVDRHLFALYIVSRFLHLQSPFLTQVHSEQWQLSTSQIPVQQMHLFDVHNYPDYVSSGGGFGPADDHGYGVSYIFMGDGMITFHISSKKSSTKTDSHRLGQHIEDALLDVASLFQAGQHFKRRFRGSGKENSRHRCGFLSRQTGASKASMTSTDF

How the values were obtained:
[1] = biological target: T1, GluA1 expressed in HEK cells (mTurquoise2-GluA1) (mouse, UniProt P23818 19-907); assay: co-IP
T1 sequence (P23818 19-907): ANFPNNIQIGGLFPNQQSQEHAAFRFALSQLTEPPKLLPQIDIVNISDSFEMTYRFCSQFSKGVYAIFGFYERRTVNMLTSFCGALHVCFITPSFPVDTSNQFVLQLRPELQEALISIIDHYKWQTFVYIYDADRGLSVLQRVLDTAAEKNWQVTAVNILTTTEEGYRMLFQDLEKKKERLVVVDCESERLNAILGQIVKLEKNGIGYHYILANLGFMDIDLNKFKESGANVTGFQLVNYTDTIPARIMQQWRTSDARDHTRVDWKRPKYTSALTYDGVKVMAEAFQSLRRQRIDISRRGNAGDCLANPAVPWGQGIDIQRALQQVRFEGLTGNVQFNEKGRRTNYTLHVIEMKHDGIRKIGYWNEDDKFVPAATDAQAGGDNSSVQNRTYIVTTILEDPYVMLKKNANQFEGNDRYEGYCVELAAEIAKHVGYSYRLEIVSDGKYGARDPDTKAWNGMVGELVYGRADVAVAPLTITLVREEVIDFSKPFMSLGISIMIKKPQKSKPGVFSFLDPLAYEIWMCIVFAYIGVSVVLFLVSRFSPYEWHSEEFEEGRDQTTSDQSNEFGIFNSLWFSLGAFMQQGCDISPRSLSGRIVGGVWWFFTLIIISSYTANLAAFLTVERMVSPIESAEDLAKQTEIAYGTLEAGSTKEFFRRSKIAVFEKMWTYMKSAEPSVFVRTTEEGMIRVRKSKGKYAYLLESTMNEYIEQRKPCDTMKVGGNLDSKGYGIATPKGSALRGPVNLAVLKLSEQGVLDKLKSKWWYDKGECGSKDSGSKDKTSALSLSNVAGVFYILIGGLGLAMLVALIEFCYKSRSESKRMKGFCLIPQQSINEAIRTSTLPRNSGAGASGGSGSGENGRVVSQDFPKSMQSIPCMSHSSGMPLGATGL

[2] = biological target: T1, GluA1 expressed in HEK cells …; assay: FRET or BRET

Row | Binder | coimmunoprecipitated CPT1C versus immunoprecipitated GluA1, relative to WT CPT1C [1] | percentage of FRET efficiency [2] [%]
1 | B1 | 0.12 ratio to GluA1 + WT CPT1C (1.00) | 
2 | B2 | 0.85 ratio to GluA1 + WT CPT1C (1.00) | 
3 | B3 |  | 9.51
4 | B4 |  | 8.7
